{
  "source": "patent US20130177572A1",
  "about": "(X BODY, published 2013)",
  "binders": {"B1": {"name": "C7 scFv (scFv, V domains shown)", "VH": "QVQLVQSGAEVKKPGSSVKVSCKASGGTFSSYAISWVRQAPGQGLEWMGGIIPIFGTANYAQKFQGRVTITADESTSTAYMELSSLRSEDTAVYYCAIHGGDRSYWGQGTLVTVSS", "VL": "DIVMTQTPLSLSVTPGQPASISCKSSQSLLHSDGKTHLFWYLQRPGQSPQLLIYEVSGRFSGVSERFSGSGSGTDFTLKISRVEAEDVGVYYCMQGLHIPHTFGQGTKVEIK", "notes": "VL of the second round pool paired with XB1511 VH"}, "B2": {"name": "XB2202/A4 IgG1 (antibody)", "heavy": "not shown", "light": "DVVMTQSPSSLSASVGDRVTITCQASQDISNWLNWYQQKPGKAPKLLIYEASNLETGVPSRFSGSGSGTDFTFTISSLQPEDIATYYCQQYNNVLRTFGQGTKVEIKRTVAAPSVFIFPPSDEQLKSGTKVEIKRTVAAPSVFIFPPSDEQLKSGTASVVCLLNNFYPREAKVQWKVDNALQSGNSQESVTEQDSKDSTYSLSSTLTLSKADYEKHKVYACEVTHQGLSSPVTKSFNRGEC", "notes": "Full-length heterotetrameric IgG1 expressed in 293T cells; also called XB2202/A4 IgG1 antibody"}, "B3": {"name": "C2 (scFv, V domains shown)", "VH": "QVQLVQSGAEVKKPGSSVRVSCKASGGTFSRHAISWVRQAPGQGLEWIGGILPILKTPNYAQRFQGRVTINADESTSTVYMEMSSLRSEDTAVYYCATHGGDRSYWGQGTLVTVSS", "VL": "DIQMTQSPSSLSASVGDRVAIACRPSQDIGTDLGWYQQKPGKAPKLLIFDSSTLQSGVPSRFSGSLSGTDFILTITNLQPEDFATYYCLQDYSFPYTFGQGTKLQIKR", "notes": "also called scFv XB2202-C2; XB2202/C2 scFv"}},
  "key": {"human PDGFRβ [1]": {"biological_target": "T1, human PDGFRβ (human, UniProt P09619 33-530, limits assumed)", "T1 construct": "also called hPDGFRβ; recombinant human PDGFRβ", "T1 sequence (P09619 33-530 limits assumed)": "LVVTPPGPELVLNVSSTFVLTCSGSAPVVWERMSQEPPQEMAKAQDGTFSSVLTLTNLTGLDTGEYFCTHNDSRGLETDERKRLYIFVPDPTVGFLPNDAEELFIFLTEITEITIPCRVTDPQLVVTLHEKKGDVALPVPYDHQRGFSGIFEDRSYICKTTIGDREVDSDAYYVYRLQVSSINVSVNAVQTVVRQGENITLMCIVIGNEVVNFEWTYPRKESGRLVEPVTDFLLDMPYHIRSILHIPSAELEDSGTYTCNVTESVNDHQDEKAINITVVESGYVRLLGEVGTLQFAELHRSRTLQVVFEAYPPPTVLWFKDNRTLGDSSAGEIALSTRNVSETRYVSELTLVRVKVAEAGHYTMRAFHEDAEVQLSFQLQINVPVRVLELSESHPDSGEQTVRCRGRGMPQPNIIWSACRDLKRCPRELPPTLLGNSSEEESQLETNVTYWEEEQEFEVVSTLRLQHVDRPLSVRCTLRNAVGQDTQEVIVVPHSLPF", "assay": "ELISA: plate coated with 2 ug/mL human PDGFRβ or human Fc, in vitro translated crude lysate diluted 1:3, anti-flag-HRP, OD450", "description": "A PDGFRβ binding ELISA assay was performed to assess the binding of the scFv to immobilized PDGFRβ and to determine the EC50. Specifically, 2 ug/mL of human PDGFRβ and human Fc or IgG in PBS was immobilized on Maxisorp plates at 4° C. overnight. The plate was then washed and blocked with superblock. In vitro translated crude scFv lysate was diluted 1:3 in 1×PBST. 100 ul of the diluted scFv lysate was loaded into each well of Maxisorp plates and incubated for 1 hour at room temperature. scFv that bound to immobilized PDGFRβ was detected by anti-flag antibody-HRP at 1:5000 dilution and a TMB substrate. The plate was read on a Molecular Device plate reader with end point assay at OD 450 nm."}, "[2]": {"biological_target": "T2, human PDGFR-hIgG1-Fc chimeric fusion protein (human, UniProt P09619 33-530)", "T2 construct": "For the IgG assay it was captured by an anti-6His antibody, which points to a His tag; also called recombinant human PDGFR-hIgG1-Fc chimeric fusion protein (R&D, #385-PR-100/CF); human PDGFRβ; not shown: human IgG1 Fc", "T2 sequence (P09619 33-530 limits assumed, stated change not applied)": "as the sequence (P09619 33-530 limits assumed) above", "assay": "SPR (Biacore T100), PDGFR-Fc captured by anti-6His antibody, 1:1 model", "description": "IgG1 to human PDFGR were determined using surface plasmon resonance on a Biacore T100. Briefly, recombinant human PDGFR-hIgG1-Fc chimeric fusion protein (R&D, #385-PR-100/CF) was immobilized on a Series CM5 sensorchip coupled with anti-hIgG1 Fc monoclonal antibody (for the VH and ScFv assays) or anti-6His antibody (for the IgG assay). […] The data was analyzed using the Biacore T100 analysis software using a 1:1 model. Mass transport was checked and avoided to allow accurate measurements. All data was double referenced according to Biacore standard protocol."}, "human PDGFRβ [3]": {"biological_target": "T1, human PDGFRβ", "assay": "solution equilibrium binding: 35S-Met labelled in vitro translated protein, human PDGFRβ titrated (0 to 20 nM), capture on protein A beads, scintillation counts", "description": "The affinity of several scFvs was determined by solution based equilibrium binding assay. Specifically, 120 pmol of scFv RNA was translated into free protein with ³⁵S Met incorporated. The translated reaction mixture was 3-fold diluted in binding buffer containing 1×PBS with 0.025% triton, 1 mg/mL BSA and 0.1 mg/mL sssDNA. […] The diluted scFv mixture was incubated with hPDGFRβ in final volume of 100 ul on Kingfisher plates (Thermofisher Scientific, 97002084). Following incubation, 25 ul of protein A magnetic beads (Invitrogen) were used to capture the PDGFRβ from solution. The captured PDGFRβ was washed and eluted in kingfisher Reader (Thermofisher Scientific). The amount of scFv (labeled with ³⁵S Met) bound to the magnetic bead-immobilized hPDGFRβ was counted using a scintillation counter and the Kd was calculated with Graph Pad Prism 5."}},
  "data": [
    {"binder": "B1", "values": [
      {"measurement": "binding result", "setting": "human PDGFRβ [1]", "value": "binds"}
    ]},
    {"binder": "B2", "values": [
      {"measurement": "Kd", "setting": "[2]", "value": 1.59, "unit": "nM"},
      {"measurement": "koff", "setting": "[2]", "value": 0.00156, "unit": "s⁻¹"},
      {"measurement": "kon", "setting": "[2]", "value": 980000, "unit": "M⁻¹ s⁻¹"}
    ]},
    {"binder": "B3", "values": [
      {"measurement": "Kd", "setting": "human PDGFRβ [3]", "value": 0.018, "unit": "nM"}
    ]}
  ]
}
